Measurements reported in PMC6504816.

These sequences were tested against T1, YlxR (Bacillus subtilis) (UniProt P32728) (assay: EMSA). Details: 10 mM Tris-HCl pH 8.0, 100 mM KCl, 10 mM MgCl2, 1 mM DTT, 1 mM EDTA, 1 ug poly(dI-dC), 20 fmol probe in 20 ul, 15 min at 25 C; 6% native PAGE.
T1 sequence: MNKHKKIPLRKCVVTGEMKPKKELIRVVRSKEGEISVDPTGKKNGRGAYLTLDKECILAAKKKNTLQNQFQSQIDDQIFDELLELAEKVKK

Sequence	binding
GGATATTCCATACCAATTCGATAAACTAGGAAGAGCACAAATAGGCATAAGCAGGGTTGAAAGGAGGTTTTGGTTC (double strand) [PthiL [-76/-1] M1]	binds more weakly
CTGGATGATATGGCAGAGTGGGTGTCAAAAATTAAATAAAAGAACTATTTTTCTCTTTATACATTCACAGGCCGCCGAGATGTTCTCGACAGCCTTTTATTTTTGACTGCTGCGTGCAGACCCGCATCAAAAGAAATAATTTCAAAATCATTTGCTTCAG (double strand) [PtrmK [-295/-135] Wt]	binds
CTGGATGATATGGCAGAGTGGGTGTACCAAATTAAATAAAAGAACTATTTTTCTCTTTATACATTCACAGGCCGCCGAGATGTTCTCGACAGCCTTTTATTTTTGACTGCTGCGTGCAGACCCGCATCAAAAGAAATAATTTCAAAATCATTTGCTTCAG (double strand) [PtrmK [-295/-135] M1]	binds
GGATATTCCAGCAAAATTCGATAAACTAGGAAGAGCACAAATAGGCATAAGCAGGGTTGAAAGGAGGTTTTGGTTC (double strand) [PthiL [-76/-1] Wt]	binds
